Data reported in publication PMC11543927, “Subtleties in Clathrin heavy chain binding boxes provide selectivity among adaptor proteins of budding yeast” (Nature Communications, 2024).

Legend:
Assay in all cases: nanoDSF thermal shift; ScChc-NTD mutants 10 µM with Ent1 or Ent2 peptide, thermal ramp up to 80 °C; apparent KD from the Tm shift model
Settings in all cases: both partners purified
[1] = target: T1, ScChc-NTD Clathrin, Arrestin and W box mutant (Cla+Arr+W) (Saccharomyces cerevisiae, UniProt P22137 1-369, F26A | K63E | I87D | Q89A | K98E | Q155A | Q195A | I197T | K251E)
T1 construct: Clathrin heavy chain N-terminal domain, Saccharomyces cerevisiae, residues 1-369, Clathrin, Arrestin and W box mutant; also called triple mutant
T1 sequence (looked up): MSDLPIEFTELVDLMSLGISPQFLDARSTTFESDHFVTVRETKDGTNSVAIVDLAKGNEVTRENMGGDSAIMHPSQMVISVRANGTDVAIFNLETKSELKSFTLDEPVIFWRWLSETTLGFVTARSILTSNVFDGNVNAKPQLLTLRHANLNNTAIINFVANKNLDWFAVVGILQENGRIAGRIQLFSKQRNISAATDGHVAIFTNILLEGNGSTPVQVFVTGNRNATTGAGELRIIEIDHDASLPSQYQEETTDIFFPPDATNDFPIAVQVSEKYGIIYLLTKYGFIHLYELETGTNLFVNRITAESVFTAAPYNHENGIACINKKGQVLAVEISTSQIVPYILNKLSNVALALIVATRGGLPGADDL

[2] = target: T2, ScChc-NTD Clathrin box mutant (K63E, I87D, Q89A, K98E) (Saccharomyces cerevisiae, UniProt P22137 1-369, K63E | I87D | Q89A | K98E)
T2 construct: Clathrin heavy chain N-terminal domain, Saccharomyces cerevisiae, residues 1-369, Clathrin box mutant; also called Cla mutant
T2 sequence (looked up): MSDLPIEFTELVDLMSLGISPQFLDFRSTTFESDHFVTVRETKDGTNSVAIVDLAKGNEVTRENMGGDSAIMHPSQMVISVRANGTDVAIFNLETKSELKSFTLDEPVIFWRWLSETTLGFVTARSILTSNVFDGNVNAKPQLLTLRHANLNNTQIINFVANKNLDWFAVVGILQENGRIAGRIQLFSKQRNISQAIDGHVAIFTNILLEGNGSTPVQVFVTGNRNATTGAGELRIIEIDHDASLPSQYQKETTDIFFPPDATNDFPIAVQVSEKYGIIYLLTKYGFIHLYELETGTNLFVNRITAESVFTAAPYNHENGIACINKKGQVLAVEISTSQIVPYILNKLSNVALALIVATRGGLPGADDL

[3] = target: T3, ScChc-NTD Arrestin and W box mutant (Arr+W) (Saccharomyces cerevisiae, UniProt P22137 1-369, F26A | Q155A | Q195A | I197T | K251E)
T3 construct: Clathrin heavy chain N-terminal domain, Saccharomyces cerevisiae, residues 1-369, Arrestin and W box mutant
T3 sequence (looked up): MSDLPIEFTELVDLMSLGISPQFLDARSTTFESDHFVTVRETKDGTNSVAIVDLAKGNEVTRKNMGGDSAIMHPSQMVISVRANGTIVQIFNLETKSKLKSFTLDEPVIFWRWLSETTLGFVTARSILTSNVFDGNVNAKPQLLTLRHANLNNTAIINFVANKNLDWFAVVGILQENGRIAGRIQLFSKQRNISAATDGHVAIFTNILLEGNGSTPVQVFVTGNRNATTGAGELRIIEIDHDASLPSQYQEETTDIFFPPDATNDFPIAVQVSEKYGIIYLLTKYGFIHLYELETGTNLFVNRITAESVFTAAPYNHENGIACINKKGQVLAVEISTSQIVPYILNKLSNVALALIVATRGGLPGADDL

B1: Ent1 CBM peptide (GYTLIDL) (peptide)
peptide: GYTLIDL
notes: also called Ent1 peptide; source: synthetic peptide, bought: NovoProLabs
Kd [1]: ~3.45 mM
Kd [2]: ~0.968 mM
binding result [3]: binds

B2: Ent2 CBM peptide (GVSLIDL) (peptide)
peptide: GVSLIDL
notes: also called Ent2 peptide; source: synthetic peptide, bought: NovoProLabs
Kd [1]: ~1.04 mM
Kd [2]: ~0.509 mM
binding result [3]: binds
